Laboratory results taken from the DeepSol protein solubility set.

Assay: soluble on expression in E. coli; label from the status in PepcDB or PDB records

Soluble on expression in E. coli, not soluble:
MGSDKIHHHHHHEPTKLTPENYFNTPAEANSFLTGIYAILSQPTFYGGDYMYLVAGDDLSHYGGSGRGPASTGLICNNATTSDNAVTAFWYALYSGINRANMFLENIDKVNGFDAGVKEQYIAEARFLRAFYYFNLVECWGDVPFKTVSTQSVTNLNIPRTDKQEIYDFIISEMADAAETGLKSASDLAYKPGRISQSTAWGILARVYLFRAGEHYREGRNATQAEKKDYFERASFYAQKVMTAGHKLAANYWDPFIDMCSDKYNTTANESIWEAEFAGNNTSDTQAEGRIGNIIGLAGPDLSSKSDVTGAKDPGYGYAFIYSTPKLYNLYVNNGDTKRFNWSIAPFEYKEAGGKNTGVTHREFEQGKLAEVMSQYGQQRGTYQYADDTEKTTATKNFSRMCGKYRREYEADKKDKNYTSINFPILRYADVLLMIAEAENEANNGPTTLAYQCMKEVRERAGLNELPDMTQEEFRQTVKDERAMELCFEYTRRFDLIRWGEYVKNMRALVTEAQSGNNWTQGPTNVYTYFNISSTYNYFPIPDAEMSVNKDITQNNPGW
MGSDKIHHHHHHETNNLKTKEDMYKYFGTSKSMLTHVYSYMPQGYQLFATSGGIFTEDRYSMRDCASDDGEFGAYADNIQNTNNGNWSPIKTYDDSWTLYRGIRAANSFIAEIAQVDFTRYEHDGQYTNWMKQLKYFPYEARVLRAHYFFELARRYGDIAMPLEVLTEEEANTIGKTPFSEVISFIVSECDDAANNLPDSYVNEPGAEIGRVTKGFAMAVKSKALLYAASKLHNPSMDTELWKKSAKAAIDIINTGLYSLDPQESANNLDSKEVVLMRINGDDSDFEMFNLPLRMTAGTRTSSLIPYSNYPSQNLVDAFETVNGYKVTLENTGWVCEDPAFDPQSPYENRDKRFYRAILANGMSFKDYTIETFKGGADDGIVSQGGSPTGYFLRKYIQEATSFEPGKEAVSKHHWVIYRYAETLLTYAESMVNAFNDVNYTDETYKYSALWAINEVRKNADMPLIPSMGKDEFMERLYNEWRVEFAFEDHRFWDVRRWKIADTTQRELYGVKIEKQADGTFNFYKNLYETRNWRDCMYLYPIPQSELYKNTNLNPQNTGW
MGSDKIHHHHHHFKSKGKKSKRKKRNYFDSEDDDDESESETKYGGKFGKKKLEGLQKRLRETESAMSKILEQLESVQAGANPVDLDAADKRSEQLEEDPSVKEAVGLTETNEQYIKDLEVALKEFQSLSKEYDKAKMKKLKRKDSSSDEDEEDEEENSSELSEIEEEEEEVKPVKKSKSSSQSVGKRKNRPKSTSEEEDEGEEESRKVAEDAEEEGIDIDSEIREHAEKEKKDKNVRRRRPKKT
MGSDKIHHHHHHGCNQSSKSDTKKEVTSKVGTYASVDCSTFTKSKDLPKGASCGYLTVPEKHAIKGQSASKKTMEIAVLKIPATKTEAKADPVVYLQGGPGYSAIDSLEDFTQSKAKYLWNDRDFYLVDQRGTGHAKPAYKCTEFNTVKGSIEQVKACKARLKAKGVDFSAYQSVQSAHDFIMLRKALKLDSWNLYGASYGTRLAETIIREDSQGVRSVILDGVFPIEVNGLSDTPWATYATLDRIVANCDASINCASEILKPMIESIIERLQNQGEEQAAIRFVNYIASLAGDARVVPLILAIDKDLNIIINEKDNEEAEGYFAPMALSVVCAEEYAFLNQTALEGRNDKNWSTTTTLTVNKMFHEGFDIDSCKAWDVAAADSIETQAVTSNLPILVINGGNDHQTPPAWGELVVKNMPNAQLFTNPQGGHVQLTSQNPYRNCIDGITMAFLAAPDQKIKTQCTSMIPVFKYN
MGSDKIHHHHHHGEDEKKPEIVVDPAEKTIEYYIAGKVTEGTTALSGVEVKAGEVTATTDAEGAYKLTVDSKKMYTVTFSKEGYMSIDNATATIADNAANRSMVSLSVKLSKKAPEKEVKADAEEEVVVTDKGDSNISQAEAAVIIPPKAIETTTTVSVTPYEEPAAVTTTVTPGNNVETPVAIANIEVETAKEVTLAKPVTLAIINKASEHTTFENVEVYNQKTTTRAGENWNKVADAIYDSETNSYKFTLPAGASLSGKYSMRVKSSKTTGKERIGETNKEEKKSNEGNMTAIPEYKINFEATAGWEYTVSPEKALMNAGVDAADAQGMATTINSAIEAQEGTTGTYKVAHELIAGISGNHILYYLNQAKYCEKTYTFKISGGRTVTITLKFYTGMQITYTNVEASQHSGGKI
MGSDKIHHHHHHGEGVVVATGKAQAAASTVAGNAYGRLQFSPCTLSSGSAAGNIEAQCAQLQVPENPAAPNGRKLALKIAWLESDAGASHAPDPVFFIAGGPGQSATQVAAIVDMGLREVRKHRDIFLVDQRGTGGSHPLECRDAGGTPLVLENDSAATAEQLSAYAARCAAGLRNDADPRYFTTSEAIGDLDAVREALGAQQINLIGGSYGTRVAQQYAARYPQHTRTVVLDGVAPNDLVIGGEFARTFEDAIALQTTQCKAQPACAKRFPVDTRTQLRQVVERLRQAPAPVDYRDPRTGELHHQEVNADTVAGLAFGFSYAPETASLLPLVLDEAAAGRYASLMALAQMSGSDMADQMNRPMQWSVLCSEDAGRYRAPAAQDDTLLGAQVAEMFFAACKTWPSKPTPAAAFAPFRSTLPVLLLSGQLDPVTPPRYAARVLQGLPNGRHLIAPGQSHGVFRLGCMPKVLGQFLQTADAKGLDARCVDSLTDVPAFTSFNGWEP
MGSDKIHHHHHHILPNDESQKLIVNALINANKTNNAIFLALSGYHEPQVVKNGIIHLYINNVLSETISECTYRPNNDSPLDYQNYFYQISSRFKTGDQVRIEVETKDGKYKANAEATVYEPIEIIKADTIESNHSLSETSESLWIYQATKWKIKLQTPTTNHSQYYRVNIKQTYTYRLTNRKTLQDSTAISTQWECSGYYDTALMDGKPGTPNNSDPIINFIPTINNYYNVFNDAYFTNNQYTMTLDSWYSFLLDNKLYKIKKITGKAIIQYYAISPAEYQYLRAANAYADHDSSNLLETPVIFPNNIKGGIGIFAIENPTETSIPLKSIEDY
MGSDKIHHHHHHIPFDESIQTVDDVNLAVIGIYDAFKSSALYSGNLTILPDLQADLVYGVNGNTNTFGDIWRWKDILATNTSIEAVYAGLYNVINRCNFMLDRVDRVRNNTTDDKDLYKLDQCCGEAYFARAIAYSELVKMFCKAYESDEDAANQLGVILTKHYQGNEEMKRASLKASYEFILEDLDRAAQLLALDKDYDPSVDGALFNNATYFNEYTVYALRARVALYMRKWDEAIKYSSKVIDSEYYLLASCTRTISSGVSYYKYMWTDDMSTEAIWKVGFTINSYGGKLGQIFLNYNHVNYRPDYVPANWVFGLYDSNDLRPETIFQTLQTGFSHGLSWPLLIKYAGNNEFIAANILHVSMPKVLRLSEQYLIRAEAYVQQAQPDYGRAGKDITTLRTARYSTYGGSTALSASNAMEVIEAERVKELYMEGFRLHDLKRWHKGFERKPQDQSLANGSSLKVEADDPLFVWPIPQHELDAPGSQVQPNESNK
MGSDKIHHHHHHLAVLRYTVTNTGQLSVSGSWSASVKHPLIAVVFSSGRPDAPTLGKILKQLKKRYGIKNFNAVGHSAGSAAWANWAVTPDKQGMPQLRRLITIAGPFNGFPGMPGMNGGQHITLAKDGRPNVMSDRYKPLYDNRRYFPKTAAVLNLFGNLGKGTDGRVPVNSARSLRYVVAGRAKSYTEREITNSKAQHSQLHEHNPLVNRYLYEFLNNGKITN
MGSDKIHHHHHHLGESGKNFDHRRGWVESRLFELEAVFAIDVAAFAVMSNHLHVVLRIDIETANCWTDREVLEQWHKLFNGDEITQKFVKGEVVETHEVLRLKHSIATYRSRLCDISWFMRCLNEPIARQANQEDSCTGRFWEGRFKSQALLDEAAVLACMAYVDLNPIRAKMASTPEQSDHTSIQLRIQAALRGEQPISLLPFIGNERKNQPKGIAFSLQDYLELVDDTGRIIRNDKHGAISTNSAKLLTRLNIFQENWLKLTTEFGKLFHGPVGTLQELTSYCEHLEKRRRHFASCCQHLMAS
MGSDKIHHHHHHLGIYVNPTGRSFELAINSEIFVDKSGLIKETNKCINTLQRYMCVSRPRRFGKSMAMDMLSAYYGRKTDAENLFKGLKISHDESYDRHINKYDVLKINMQDFLSVTHSVDDMLKMLCEYITDDFSIECKDIIFRDKSNIVRVMQDVFMSTGRPFVILIDEWDCLFREFTQDKEAQKKYLDFLRGWLKDKDYIALAYMTGILPIKKYGSHSALNMFTEYSMTDMGALAEYFGFTDDEVRELCDRYDMDFEEARAWYNGYKLVSHSKYGVKKYAMYSPKSVVEAMLKHKFGTYWNQTETYEALKVYIQMNMDGLKDAVIKMLAGESEKINTGTFENDMTSFATKDDVLTLLVHLGYLTYDSETEEVSIPNREVSKEYLNAISTMDWDEVSKSIKASQKLLESLWNMNGAAVADGIDKAHNEISILRYNDENSLSCTINLAFYSAREYYSIVRELPTGKGFADVCFIPRVSHLDKPAVVIELKYDKNVDGAISQIKSRQYVEALKDYKGNLLLVGINYDKKTKEHQCVIEKWKL
MGSDKIHHHHHHLGKFSHIAIAFIDVVMESDHAGLELIRWIREELHNKTIRLILRTGQPGQAPEEDVIVNYDINDYKAKSELDSRKLMTSVYSALRSYRDIMEIEQARRAQLSHRMGLERVLEATAGLFELRTLHKFADGLLTQVATLLNLDNETLLLSCNAMDAISGHVDCAGIEILAGTGQFANSSAKTILPERIDKLLRSALAQKRCLYEDNYFVGYFPTKSGLINLLYMDGINKIDDLDKKLIDIFAINVGIAFENLLLNQEVEDTQSELILRLGDVVESRSKEAANHVKRMAEYCAQLALLAGLNEYDADLLRRASPMHDIGKIAIPDAVLLKPGKLNDDEWQIMRQHPNIGHQILANSERPILKAASIIALQHHEKYDGSGYPSNLKQDEIHIFARIVAIADVFDALSHTRCWLFLPIPQKCKISDRLAQKHTVNWSLYRRIP
MGSDKIHHHHHHLKVVCISDTHEQLHNVTVPDGDVLIHAGDFTNNGKREELIKFNEEMTRFPHKYKLVVAGNHELGFDHDENQGERQDADKGLGTEDGYNILTNVTYLQDKGVTIDGVTFFGSSYHPLRGFPFYRNRAEQLAECWKAVPNDTNVLITHTPPLGYLDQFGDERWGCRDLLKTVERIQPAYHIFGHVHEQHGVLSNGNTVCYKLYENEF
MGSDKIHHHHHHLRIFGKEGCRMEMQRVIELDMPVNFRDLGGYQGLDGRQVKWRKIYRSAALNEMSARDRVKLANLRITVDCDLRSSREQRSYPDLLWPGVRFVNIGLYAEGDRFNQAHPFLRLFHHLPEFDDYLPKIYQQVLLNEHSEEGIKRVFEELLKLPEDQALVYHCAAGKDRTGIISILILMALGVDDKTIAEDYLLTDELYDFSIEKQHPTNEKLSQVIAKMNVTRGEGTAVKGITETIRQGWGSFDKFFTRKLGFKQADLEKFREMYLEEEEED
MGSDKIHHHHHHLSKLYPHAKNRQDSGMDRNPTLAQWQLAQELRRLRGDRKFSEVVKAARTTGGSLARWETPGDRGAVPGPAALERLLQIYGAEDQLERLLSLRKEARQPDRWQPYGLERSYRTYANIESQATSIEYYQSQIVPGIAQTEAYARAVIEATLHPSSDVDREVQARMERQRVLSKPERPDLWLIIAEGALRQQVGTSQVMADQIDRLIELSQEPGITLQVLPFTAGAHVAMRLAGFVIMSIAQHGITTVYIEGQNSGMFFTDSEDLAEYGMIFNRLRAACLDEGRPTRTLLERIARDHRRGEG
MGSDKIHHHHHHLTIRVLAHLAGAHLDHAIALGLRSGLGDDWLRIGGLKLFADGSLGSESAHMLLPYEGRDHTGIAVIPPAEMQEIVTRANAHGISVVVHAIGDAANRSVLDAIAAARATAASLALPNRIEHCQILDPHDIPRFAELNVIASMQPIHCTADMVMAERLWGKRCATSYAWRSLRAAGATLAFGSDAPVETMDPWAGIHAAVTRQTTDGTPDGGWYPEQRLTLTEALEAYCIGPTIAGADAERRGRLIPGMFADLAVLNGDPFQMPVTHLHTLHAELTMVGGKIVFNRTSR
